Data on three molecules can be found in patent US20090130652A1 (CRUCELL HOLLAND B V, published 2009).

B1: CR4354L4261 (antibody, human IgG1, lambda, V domains shown)
VH: QVQLVQSGAEVRKPGASVKVSCKASGYTFTHYYMHWVRQAPGQGLEWMGIINPSGGSTTYAQKLQGRVTMTRDTSTSTVYMELSSLRSEDTAVYYCARDWGSNYVWGSYPKYWGQGTLVTVSS
VL: TQAVLTQPSSASGTPGQRVTISCSGSSPNIGSNNVNWYQQLPGTAPKLLIYSNNQRPSGVPGRFSGSKSGTSASLAISGLQSEDEADYYCAAWDDGLSGNYVFGAGTQLTVLS
B2: CR4354L4328 (antibody, human IgG1, lambda, V domains shown)
VH: QVQLVQSGAEVRKPGASVKVSCKASGYTFTHYYMHWVRQAPGQGLEWMGIINPSGGSTTYAQKLQGRVTMTRDTSTSTVYMELSSLRSEDTAVYYCARDWGSNYVWGSYPKYWGQGTLVTVSS
VL: TQAVLTQPSSVSGTPGQRVTISCSGSSSNIGSNTVNWYQQLPGTAPKLLIYGNNNRPSGVPARFSGSRSGTSASLAISGLRSEDEADYYCAAWDDSLNGPVFGGGTKLTVLG
B3: CR4354L4335 (antibody, human IgG1, lambda, V domains shown)
VH: QVQLVQSGAEVRKPGASVKVSCKASGYTFTHYYMHWVRQAPGQGLEWMGIINPSGGSTTYAQKLQGRVTMTRDTSTSTVYMELSSLRSEDTAVYYCARDWGSNYVWGSYPKYWGQGTLVTVSS
VL: TQSVLTQPPSTSGTPGQRVTISCSGSDSNIGSNTVNWYQQLPGMAPKLLIYRNNQRPSGVPDRFSGSKSGTSASLAISGLQSEDEADYFCASWDANLGGPLFGGGTKVTVLG

This experiment deals with WNV strain 385-99 (infectious, as used in the virus neutralization assay). The experiment in a line: cell-based or functional assay.
For the molecule B1, the “Potency (%) in 66% neutralization concentration, VNA” value (“Potency (%)” for short) was 106%.

On to B2, for which the “Potency (%)” value is 286%.

Take B3: the “Potency (%)” value stood at 60%.
